According to patent publication EP4335864A1:

Target: recombinant murine IFN-α subtype A (murine)
Assay: cell-based or functional assay

Chain of recombinant murine IFN-α subtype A (murine) (P01573 24-190): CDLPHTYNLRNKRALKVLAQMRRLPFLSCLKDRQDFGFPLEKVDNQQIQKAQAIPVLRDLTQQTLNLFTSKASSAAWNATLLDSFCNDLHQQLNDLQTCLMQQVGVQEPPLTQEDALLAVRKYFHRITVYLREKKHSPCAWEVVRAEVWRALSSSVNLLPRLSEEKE

Which amount of protein for full IFN neutralization, against B18 does the source give for “D3 immunoglobulin-like domain of vaccinia virus B18 protein, 6xHis tagged, expressed in bacteria (from UniProt P21077 254-353) (receptor)” here?
The amount of protein for full IFN neutralization, against B18 was 1.
